Source: patent US20130022608A1 (POMONA RICERCA S R L, published 2013)

How the values were obtained:
Experiment in all cases: cell-based or functional assay
[1] = molecular target: A/PR/8/34 (H1N1) hemagglutinin (HA), wild type (Influenza A virus A/PR/8/34 (H1N1), UniProt P03452 18-565)
[2] = molecular target: Hemagglutinin of A/Wisconsin/67/2005 (H3N2) (Influenza A virus A/Wisconsin/67/2005 …)
[3] = molecular target: Hemagglutinin of A/Mal/302/54 (H1N1) (Influenza A virus A/Mal/302/54 (H1N1))
[4] = molecular target: Hemagglutinin of A/WS/33 (H1N1) (Influenza A virus A/WS/33 (H1N1), UniProt P03454 18-565)
[5] = molecular target: Hemagglutinin of A/Swine/Parma/1/97 (H1N1) (Influenza A virus A/Swine/Parma/1/97 …)
[6] = molecular target: Hemagglutinin of A/Hong Kong/8/68 (H3N2) (Influenza A virus A/Hong Kong/8/68 …)
[7] = molecular target: H3N2 HA (A/Aichi/2/68), wild type (Influenza A virus A/Aichi/2/68 (H3N2), UniProt Q91MA7 17-566)
[8] = molecular target: Hemagglutinin of A/Victoria/3/75 (H3N2) (Influenza A virus A/Victoria/3/75 (H3N2), UniProt P03435 17-567)
[9] = molecular target: Hemagglutinin of A/Milan/UHSR1/2009 (H1N1) (Influenza A virus A/Milan/UHSR1/2009 …)
[10] = molecular target: Hemagglutinin of A/NC/20/99 (H1N1) (Influenza A virus A/NC/20/99 (H1N1))
[11] = molecular target: Hemagglutinin of A/Port Chalmers/1/73 (H3N2) (Influenza A virus A/Port Chalmers/1/73 …)

| Binder | IC50, micro-neutralization assay on MDCK cells [1] | IC50, micro-neutralization assay on MDCK cells [2] | IC50, micro-neutralization assay on MDCK cells [3] | IC50, micro-neutralization assay on MDCK cells [4] | IC50, micro-neutralization assay on MDCK cells [5] | IC50, micro-neutralization assay on MDCK cells [6] | IC50, micro-neutralization assay on MDCK cells [7] | IC50, micro-neutralization assay on MDCK cells [8] | IC50, micro-neutralization assay on MDCK cells [9] | IC50, micro-neutralization assay on MDCK cells [10] | IC50, micro-neutralization assay on MDCK cells [11] |
| --- | --- | --- | --- | --- | --- | --- | --- | --- | --- | --- | --- |
| Fab PN-SIA28 (Fab, V domains shown) VH: LEESGGGVVQPGRSLRLSCAASGFPFSSYGMHWVRQAPGKGLEWVAGVSYDGSYKYYADSVKGRFTISRDSSKSTLYLQMNSLRPEDTAVYYCARPSAIFGIYIILNGLDVWGQGTTVTVSS VL: ELTQSPSSVSASVGDRVTITCRATQGISSWLAWYQQKPGKPPKLLIFGASSLQSGVPSRFSGSGSGTDFTLTISSLQPEDFATYFCQQAHSFPLTFGGGTKVEIK | 2 µg/mL | > 20 µg/mL | 0.8 µg/mL | 2.9 µg/mL | 3.9 µg/mL | 20 µg/mL | 20 µg/mL | > 20 µg/mL | 0.3 µg/mL | 7 µg/mL | 13.2 µg/mL |
| IgG PN-SIA28 (antibody, V domains shown) VH: LEESGGGVVQPGRSLRLSCAASGFPFSSYGMHWVRQAPGKGLEWVAGVSYDGSYKYYADSVKGRFTISRDSSKSTLYLQMNSLRPEDTAVYYCARPSAIFGIYIILNGLDVWGQGTTVTVSS VL: ELTQSPSSVSASVGDRVTITCRATQGISSWLAWYQQKPGKPPKLLIFGASSLQSGVPSRFSGSGSGTDFTLTISSLQPEDFATYFCQQAHSFPLTFGGGTKVEIK | 1.2 µg/mL | – | 0.64 µg/mL | 1.3 µg/mL | 2 µg/mL | 0.8 µg/mL | 0.6 µg/mL | 1.2 µg/mL | 0.2 µg/mL | – | 1.8 µg/mL |
